Measured values published in patent US20180155451A1 (published 2018).

Legend:
[1] = target: T1, FcγRIIIa extracellular domain with C-terminal His tag (human, UniProt P08637 17-208); test: SPR (Biacore), antibody captured via antigen peptide, FcγR as analyte; binding relative to GpH7-A5/GpH7-B3/GpL16-k0 = 100
T1 construct: extracellular domain; also called FcgRIIIa; 3a; not shown: His tag at the C terminus

[2] = target: T2, FcγRIIb extracellular domain with C-terminal His tag (human, UniProt P31994 43-217); test: as above
T2 construct: extracellular domain; also called FcgRIIb; 2b; not shown: His tag at the C terminus
T2 sequence (looked up): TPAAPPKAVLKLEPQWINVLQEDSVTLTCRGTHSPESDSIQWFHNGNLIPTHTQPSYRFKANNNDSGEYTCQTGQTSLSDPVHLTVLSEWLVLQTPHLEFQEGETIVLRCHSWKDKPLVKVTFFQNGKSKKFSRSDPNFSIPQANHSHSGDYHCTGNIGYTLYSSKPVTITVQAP

[3] = target: T3, FcγRIIa H (human, UniProt P12318 34-217); test: SPR (Biacore); He/Con_2aH divided by He/Con_2b (FcγRIIb) of the same antibody
T3 construct: extracellular domain; Soluble His-tagged extracellular domain expressed in FreeStyle293 cells; also called FcγRIIa type H; FcgRIIa H; not shown: His tag attached to the C terminus
T3 sequence (looked up): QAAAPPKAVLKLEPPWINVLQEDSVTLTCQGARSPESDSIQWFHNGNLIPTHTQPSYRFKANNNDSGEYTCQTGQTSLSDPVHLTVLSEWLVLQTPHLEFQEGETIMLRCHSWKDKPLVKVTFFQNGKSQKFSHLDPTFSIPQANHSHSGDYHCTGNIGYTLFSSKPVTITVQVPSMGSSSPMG
Experimental: The heterodimerized antibodies He Abs in which one of the H chains was introduced with an alteration were assayed for their binding activities to each activating FcγR and inhibitory FcγR according to the method described in Example 4. […] The activating FcγRs in FIGS. 26, 27, 28, and 29 are FcγRIa, FcγRIIa (R), FcγRIIa (H), and FcγRIIIa, respectively.
(§1) Analysis of interaction between objective antibody and the FcγR was carried out using Biacore T100 (GE Healthcare). HBS-EP+ (GE Healthcare) was used as the running buffer, and the measurement temperature was set to 25° C. Chips produced by immobilizing the antigen peptide by the amine coupling method to a Series S Sencor Chip CM5 (GE Healthcare), or alternatively, chips produced by allowing preliminarily biotinylated antigen peptides to interact with and immobilize onto a Series S Sensor Chip SA (certified) (GE Healthcare) were used. Antibodies of interest were captured onto an antigen peptide-immobilized chip, and allowed to interact to each FcγR diluted with running buffer. To regenerate and repeatedly use the chip, the antibodies captured on the chip were washed off by reacting 10 mM glycine-HCl, pH 1.5.

[4] = target: T3, FcγRIIa H; test: SPR (Biacore), captured antibody, FcγR analyte; relative to GpH7-A5/GpH7-B3/GpL16-k0 = 100
Experimental: as §1
(§2) The FcγR-binding activity of each antibody was assessed primarily using as an indicator the FcγR-binding activity and dissociation constant for FcγR.

[5] = target: T4, FcγRIIb (human, UniProt P31994 43-217); test: as above
T4 construct: extracellular domain; Soluble His-tagged extracellular domain expressed in FreeStyle293 cells; also called FcgRIIb; 2b; not shown: His tag attached to the C terminus
T4 sequence (looked up): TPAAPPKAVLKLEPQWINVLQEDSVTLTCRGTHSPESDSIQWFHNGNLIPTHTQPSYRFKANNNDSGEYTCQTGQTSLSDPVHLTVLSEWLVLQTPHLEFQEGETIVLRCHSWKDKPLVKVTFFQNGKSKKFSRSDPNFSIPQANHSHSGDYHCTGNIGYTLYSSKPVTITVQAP
Experimental: as §1, §2

T1 sequence (P08637 17-208): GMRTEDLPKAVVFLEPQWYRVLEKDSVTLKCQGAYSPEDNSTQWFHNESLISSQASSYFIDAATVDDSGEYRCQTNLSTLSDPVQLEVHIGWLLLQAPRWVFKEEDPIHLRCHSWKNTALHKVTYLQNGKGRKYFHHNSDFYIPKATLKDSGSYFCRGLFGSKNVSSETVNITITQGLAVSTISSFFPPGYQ

B1: GpH7-A5/GpH7-B3 variant I336_02A/GpL16-k0 (antibody, human IgG1, kappa)
heavy 1: not shown
heavy 2: not shown
light: DIVMTQSPLSLPVTPGEPASISCQASESLVHSNRNTYLHWYLQKPGQSPQLLIYKVSNRFSGVPDRFSGSGSGTDFTLKISRVEAEDVGVYYCSQNTHVPPTFGQGTKVEIERTVAAPSVFIFPPSDEQLKSGTASVVCLLNNFYPREAKVQWKVDNALQSGNSQESVTEQDSKDSTYSLSSTLTLSKADYEKHKVYACEVTHQGLSSPVTKSFNRGEC
notes: He Ab: the mutation stands only in the GpH7-B3-derived H chain; also called He Ab I336A
He/Con_3a [1]: 111 relative (control = 100) | He/Con_2b [2]: 84.9 relative (control = 100)

B2: GpH7-A5/GpH7-B3 variant P331_10E/GpL16-k0 (antibody, human IgG1, kappa)
heavy 1: not shown
heavy 2: not shown
light: DIVMTQSPLSLPVTPGEPASISCQASESLVHSNRNTYLHWYLQKPGQSPQLLIYKVSNRFSGVPDRFSGSGSGTDFTLKISRVEAEDVGVYYCSQNTHVPPTFGQGTKVEIERTVAAPSVFIFPPSDEQLKSGTASVVCLLNNFYPREAKVQWKVDNALQSGNSQESVTEQDSKDSTYSLSSTLTLSKADYEKHKVYACEVTHQGLSSPVTKSFNRGEC
notes: Heterodimerized anti-glypican-3 IgG1; mutation in the GpH7-B3 H chain only; also called He Ab
He_2aH/2b [3]: 0.75 ratio | He/Con_2aH [4]: 87.1 relative (control = 100) | He/Con_2b [5]: 116 relative (control = 100)

B3: GpH7-A5/GpH7-B3 variant P331_20W/GpL16-k0 (antibody, human IgG1, kappa)
heavy 1: not shown
heavy 2: not shown
light: DIVMTQSPLSLPVTPGEPASISCQASESLVHSNRNTYLHWYLQKPGQSPQLLIYKVSNRFSGVPDRFSGSGSGTDFTLKISRVEAEDVGVYYCSQNTHVPPTFGQGTKVEIERTVAAPSVFIFPPSDEQLKSGTASVVCLLNNFYPREAKVQWKVDNALQSGNSQESVTEQDSKDSTYSLSSTLTLSKADYEKHKVYACEVTHQGLSSPVTKSFNRGEC
notes: as for B2
He_2aH/2b [3]: 0.75 ratio | He/Con_2aH [4]: 82.8 relative (control = 100) | He/Con_2b [5]: 111 relative (control = 100)

B4: GpH7-A5/GpH7-B3 variant I336_03V/GpL16-k0 (antibody, human IgG1, kappa)
heavy 1: not shown
heavy 2: not shown
light: DIVMTQSPLSLPVTPGEPASISCQASESLVHSNRNTYLHWYLQKPGQSPQLLIYKVSNRFSGVPDRFSGSGSGTDFTLKISRVEAEDVGVYYCSQNTHVPPTFGQGTKVEIERTVAAPSVFIFPPSDEQLKSGTASVVCLLNNFYPREAKVQWKVDNALQSGNSQESVTEQDSKDSTYSLSSTLTLSKADYEKHKVYACEVTHQGLSSPVTKSFNRGEC
notes: He Ab: the mutation stands only in the GpH7-B3-derived H chain; also called He Ab I336V
He/Con_3a [1]: 112 relative (control = 100) | He/Con_2b [2]: 90.3 relative (control = 100)

B5: GpH7-A5/GpH7-B3 variant S324_05P/GpL16-k0 (antibody, human IgG1, kappa)
heavy 1: not shown
heavy 2: not shown
light: DIVMTQSPLSLPVTPGEPASISCQASESLVHSNRNTYLHWYLQKPGQSPQLLIYKVSNRFSGVPDRFSGSGSGTDFTLKISRVEAEDVGVYYCSQNTHVPPTFGQGTKVEIERTVAAPSVFIFPPSDEQLKSGTASVVCLLNNFYPREAKVQWKVDNALQSGNSQESVTEQDSKDSTYSLSSTLTLSKADYEKHKVYACEVTHQGLSSPVTKSFNRGEC
notes: as for B2
He_2aH/2b [3]: 0.59 ratio | He/Con_2aH [4]: 55.5 relative (control = 100) | He/Con_2b [5]: 94.7 relative (control = 100)

B6: GpH7-A5/GpH7-B3 variant P331_07I/GpL16-k0 (antibody, human IgG1, kappa)
heavy 1: not shown
heavy 2: not shown
light: DIVMTQSPLSLPVTPGEPASISCQASESLVHSNRNTYLHWYLQKPGQSPQLLIYKVSNRFSGVPDRFSGSGSGTDFTLKISRVEAEDVGVYYCSQNTHVPPTFGQGTKVEIERTVAAPSVFIFPPSDEQLKSGTASVVCLLNNFYPREAKVQWKVDNALQSGNSQESVTEQDSKDSTYSLSSTLTLSKADYEKHKVYACEVTHQGLSSPVTKSFNRGEC
notes: as for B2
He_2aH/2b [3]: 0.68 ratio | He/Con_2aH [4]: 77.4 relative (control = 100) | He/Con_2b [5]: 114 relative (control = 100)

B7: GpH7-A5/GpH7-B3 variant N325_20W/GpL16-k0 (antibody, human IgG1, kappa)
heavy 1: not shown
heavy 2: not shown
light: DIVMTQSPLSLPVTPGEPASISCQASESLVHSNRNTYLHWYLQKPGQSPQLLIYKVSNRFSGVPDRFSGSGSGTDFTLKISRVEAEDVGVYYCSQNTHVPPTFGQGTKVEIERTVAAPSVFIFPPSDEQLKSGTASVVCLLNNFYPREAKVQWKVDNALQSGNSQESVTEQDSKDSTYSLSSTLTLSKADYEKHKVYACEVTHQGLSSPVTKSFNRGEC
notes: as for B2
He_2aH/2b [3]: 0.28 ratio | He/Con_2aH [4]: 47.2 relative (control = 100) | He/Con_2b [5]: 169 relative (control = 100)

B8: GpH7-A5/GpH7-B3 variant P331_04F/GpL16-k0 (antibody, human IgG1, kappa)
heavy 1: not shown
heavy 2: not shown
light: DIVMTQSPLSLPVTPGEPASISCQASESLVHSNRNTYLHWYLQKPGQSPQLLIYKVSNRFSGVPDRFSGSGSGTDFTLKISRVEAEDVGVYYCSQNTHVPPTFGQGTKVEIERTVAAPSVFIFPPSDEQLKSGTASVVCLLNNFYPREAKVQWKVDNALQSGNSQESVTEQDSKDSTYSLSSTLTLSKADYEKHKVYACEVTHQGLSSPVTKSFNRGEC
notes: as for B2
He_2aH/2b [3]: 0.77 ratio | He/Con_2aH [4]: 84.7 relative (control = 100) | He/Con_2b [5]: 110 relative (control = 100)

B9: GpH7-A5/GpH7-B3 variant P331_15Y/GpL16-k0 (antibody, human IgG1, kappa)
heavy 1: not shown
heavy 2: not shown
light: DIVMTQSPLSLPVTPGEPASISCQASESLVHSNRNTYLHWYLQKPGQSPQLLIYKVSNRFSGVPDRFSGSGSGTDFTLKISRVEAEDVGVYYCSQNTHVPPTFGQGTKVEIERTVAAPSVFIFPPSDEQLKSGTASVVCLLNNFYPREAKVQWKVDNALQSGNSQESVTEQDSKDSTYSLSSTLTLSKADYEKHKVYACEVTHQGLSSPVTKSFNRGEC
notes: as for B2
He_2aH/2b [3]: 0.75 ratio | He/Con_2aH [4]: 86 relative (control = 100) | He/Con_2b [5]: 114 relative (control = 100)

B10: GpH7-A5/GpH7-B3 variant I336_09D/GpL16-k0 (antibody, human IgG1, kappa)
heavy 1: not shown
heavy 2: not shown
light: DIVMTQSPLSLPVTPGEPASISCQASESLVHSNRNTYLHWYLQKPGQSPQLLIYKVSNRFSGVPDRFSGSGSGTDFTLKISRVEAEDVGVYYCSQNTHVPPTFGQGTKVEIERTVAAPSVFIFPPSDEQLKSGTASVVCLLNNFYPREAKVQWKVDNALQSGNSQESVTEQDSKDSTYSLSSTLTLSKADYEKHKVYACEVTHQGLSSPVTKSFNRGEC
notes: He Ab: the mutation stands only in the GpH7-B3-derived H chain; also called He Ab I336D
He/Con_3a [1]: 106 relative (control = 100) | He/Con_2b [2]: 92.1 relative (control = 100)

B11: GpH7-A5/GpH7-B3 variant P331_03V/GpL16-k0 (antibody, human IgG1, kappa)
heavy 1: not shown
heavy 2: not shown
light: DIVMTQSPLSLPVTPGEPASISCQASESLVHSNRNTYLHWYLQKPGQSPQLLIYKVSNRFSGVPDRFSGSGSGTDFTLKISRVEAEDVGVYYCSQNTHVPPTFGQGTKVEIERTVAAPSVFIFPPSDEQLKSGTASVVCLLNNFYPREAKVQWKVDNALQSGNSQESVTEQDSKDSTYSLSSTLTLSKADYEKHKVYACEVTHQGLSSPVTKSFNRGEC
notes: as for B2
He_2aH/2b [3]: 0.7 ratio | He/Con_2aH [4]: 82.5 relative (control = 100) | He/Con_2b [5]: 119 relative (control = 100)

B12: GpH7-A5/GpH7-B3 variant N325_15Y/GpL16-k0 (antibody, human IgG1, kappa)
heavy 1: not shown
heavy 2: not shown
light: DIVMTQSPLSLPVTPGEPASISCQASESLVHSNRNTYLHWYLQKPGQSPQLLIYKVSNRFSGVPDRFSGSGSGTDFTLKISRVEAEDVGVYYCSQNTHVPPTFGQGTKVEIERTVAAPSVFIFPPSDEQLKSGTASVVCLLNNFYPREAKVQWKVDNALQSGNSQESVTEQDSKDSTYSLSSTLTLSKADYEKHKVYACEVTHQGLSSPVTKSFNRGEC
notes: as for B2
He_2aH/2b [3]: 0.41 ratio | He/Con_2aH [4]: 41.2 relative (control = 100) | He/Con_2b [5]: 99.5 relative (control = 100)

B13: GpH7-A5/GpH7-B3 variant P331_16H/GpL16-k0 (antibody, human IgG1, kappa)
heavy 1: not shown
heavy 2: not shown
light: DIVMTQSPLSLPVTPGEPASISCQASESLVHSNRNTYLHWYLQKPGQSPQLLIYKVSNRFSGVPDRFSGSGSGTDFTLKISRVEAEDVGVYYCSQNTHVPPTFGQGTKVEIERTVAAPSVFIFPPSDEQLKSGTASVVCLLNNFYPREAKVQWKVDNALQSGNSQESVTEQDSKDSTYSLSSTLTLSKADYEKHKVYACEVTHQGLSSPVTKSFNRGEC
notes: as for B2
He_2aH/2b [3]: 0.73 ratio | He/Con_2aH [4]: 84.5 relative (control = 100) | He/Con_2b [5]: 116 relative (control = 100)

B14: GpH7-A5/GpH7-B3 variant N325_16H/GpL16-k0 (antibody, human IgG1, kappa)
heavy 1: not shown
heavy 2: not shown
light: DIVMTQSPLSLPVTPGEPASISCQASESLVHSNRNTYLHWYLQKPGQSPQLLIYKVSNRFSGVPDRFSGSGSGTDFTLKISRVEAEDVGVYYCSQNTHVPPTFGQGTKVEIERTVAAPSVFIFPPSDEQLKSGTASVVCLLNNFYPREAKVQWKVDNALQSGNSQESVTEQDSKDSTYSLSSTLTLSKADYEKHKVYACEVTHQGLSSPVTKSFNRGEC
notes: as for B2
He_2aH/2b [3]: 0.68 ratio | He/Con_2aH [4]: 48 relative (control = 100) | He/Con_2b [5]: 70.1 relative (control = 100)
